Test results as given in article PMC12307814, “The structure of the Tad pilus alignment complex reveals a periplasmic conduit for pilus extension” (Nature Communications, 2025).

Tests used:
[1] = biological target: T1, periplasmic N-domain of RcpA (RcpAN) (Pseudomonas aeruginosa, UniProt Q9HW96 28-115); assay: SEC-MALS; co-expressed (two plasmids) and co-purified RcpC_(33-303)-RcpAN complex; 50 uL at 2 mg/mL on a WTC 015S5 column, 50 mM HEPES, 150 mM NaCl, 200 mM arginine, 1 mM TCEP, pH 8.0; settings: both partners purified
T1 construct: RcpA outer membrane secretin, Pseudomonas aeruginosa, periplasmic N-domain (9.7 kDa, small globular Ig domain fold); Gene codon optimised, in pET28a; also called His-RcpAN; His-RspAN; source: E. coli BL21 (DE3), purified (Ni-NTA, SEC); also co-expressed with RcpC constructs and co-purified
T1 sequence: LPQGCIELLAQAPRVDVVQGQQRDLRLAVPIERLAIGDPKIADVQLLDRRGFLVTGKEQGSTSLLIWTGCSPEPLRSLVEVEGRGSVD

[2] = biological target: the molecule itself; assay: SEC-MALS; single purified protein; 50 uL at 2 mg/mL on a WTC 015S5 column, 50 mM HEPES, 150 mM NaCl, 200 mM arginine, 1 mM TCEP, pH 8.0, 0.8 mL/min

B1: RcpC periplasmic domain (RcpC_(33-303)) (domain or fragment)
chain: NAHAPSVAPASATVDASLEKLERKPVLVASRDLPALAVIGRDDLSVELLRTAPVGSYDRPEALLGKRVWVAVPAGSILSAATLEPGGPLARTIRPDERAMAIAVDEVVGGGGFVLPGDYVDVMLFVRDERDGESTPLAQLVLPGVRVLTYGERIAVGSDGQDRSNQEKDPRPPRTAVLAVPEDGVARLMLASQAGSLRLAIRSKDEELYRREQEGALLQASLGAPSAALSLDQLLERRKPTAPSVRSAAPRVPVANGVTVYRGSAMTHEAP
notes: RcpC, Pseudomonas aeruginosa, residues 33-303 of the full-length protein (RcpC_(1-303)); lacks the N-terminal transmembrane helix; holds D1, D2, linker L3 and the C-terminal β-hairpin; Gene codon optimised, in pET21a; also called RcpCΔN; periplasmic region of RcpC; source: E. coli BL21 (DE3), purified (Ni-NTA, SEC); also co-expressed with RcpAN and co-purified; not shown: His tag (from the Ni-NTA …)
Q: Which “stoichiometry N” value [1] does the source give for B1 here?
A: 2 RcpC per RcpA (12:6 RcpC:RcpA)

Q: And the “stoichiometry N” value [2]?
A: 12 copies
